Numbering of substitutions follows the chain as printed.
B1: anti-mutCALR antibody clone 48 (antibody, human IgG1, lambda, V domains shown)
VH: EVQLVQSGAEVKKPGSSVKVSCKASGGTFSSYAISWVRQAPGQGLEWMGGIIPIFGTANYAQKFQGRVTITADESTSTAYMELSSLRSEDTAVYYCASSPLRGSGWYWHYYYGMDVWGQGTTVTVSS
VL: SYVLTQPPSVSVAPGKTARITCGGNNIGSKSVHWYQQKPGQAPVLVIYQDRKRPSGIPERFSGSNSGNTATLTISGTQAMDEADYYCQAWDSSTAVFGGGTKLTVLG
notes: human IgG1
B2: anti-mutCALR antibody clone 49 (antibody, human IgG1, lambda, V domains shown)
VH: B1 VH
VL: SYELTQPPSVSVAPGKTARITCGGNNIRAKHVHWYQQKPGQSPVLVIYQDSKRPSGIPERFSGSNSGSTATLTISRVEAGDEADYYCQVWDSSTVVFGGGTKLTVLG
notes: human IgG1
B3: anti-mutCALR antibody clone 50 (antibody, human IgG1, lambda, V domains shown)
VH: B1 VH with E1Q, V2M
VL: B1 VL with S29T, A42S, A89V, A95E
notes: human IgG1
B4: anti-mutCALR antibody clone 45 (antibody, human IgG1, lambda, V domains shown)
VH: B1 VH
VL: SYVLTQPLSVSVAPGQTARITCGGNNIGRKSVHWYQQKPGQAPVLVIYRDSNRPSGIPERFSGSNSGNTATLTISRAQAGDEADYYCQVWDSSTVVFGGGTKLTVLG
notes: human IgG1
B5: anti-mutCALR antibody clone 43 (antibody, human IgG1, lambda, V domains shown)
VH: B1 VH with S16A
VL: not shown
notes: human IgG1
B6: anti-mutCALR antibody clone 51 (antibody, human IgG1, lambda, V domains shown)
VH: B1 VH
VL: B1 VL with V3E, N26K, S29T, R51S, D91G, A95V
notes: human IgG1
B7: anti-mutCALR antibody clone 40 (antibody, human IgG1, lambda, V domains shown)
VH: EVQLVQSGAEVKKPGASVKVSCKVSGYTLTESSMHWVRQAPGKGLEWMGLVDPEDGETIYAQKFQGRVTMTEDTSTDTAYMELSSLRSEDTAVYYCAREEWSGDGDDAFDIWGQGTMVTVSS
VL: QSVLTQPPSVSAAPGQKVTISCSGSSSNIGSYSVSWYQQLPGTAPKLLIYDNNKRPSGIPDRFSGSNSGTSATLGITGLQTGDEADYYCGTWDSSLSAWVFGGGTKLTVLG
notes: human IgG1
B8: anti-mutCALR antibody clone 42 (antibody, human IgG1, lambda, V domains shown)
VH: B7 VH with S32L
VL: B7 VL with N52D, G75S
notes: human IgG1
B9: anti-mutCALR antibody clone 34 (antibody, human IgG1, lambda, V domains shown)
VH: QVQLVQSGAEVKKPGATVKISCKVSGYSFTDYFIHWVQQAPGKGLAWVGLVDPEDGETIYAEKFQGRVTITADTSTDTAYMELSSLRSEDTAVYYCATPGGILTDPDAFDIWGQGTMVTVSS
VL: QSALTQPASVSGSPGQSITISCTGTSSDVGGYNYVSWYQQHPGKAPKLMIYEVSNRPSGVSNRFSGSKSGNTASLTISGLQAEDEADYYCSSYTSSSTYVFGTGTKVTVLG
notes: human IgG1
B10: anti-mutCALR antibody clone 4 (antibody, human IgG1, lambda, V domains shown)
VH: EVQLVQSGAEVKKPGASVKVSCKVSGYTLTELSMQWVRQAPGKGLEWMGGFDPDDGETMYAEKFQGRLTVTEDTSTDTVYMELRSLTSEDTALYFCATSPGYDFFDYWGQGTLVTVSS
VL: SYVLTQPPSVSVAPGQTARITCGGNNIGSKSVHWYQQKPGQAPVLVVYDDSDRPSGIPERFSGSNSGNTATLTINRVEAGDEADYYCQVWDSSNDLLIFGGGTKLTVLG
B11: anti-mutCALR antibody clone 12 (antibody, human IgG1, lambda, V domains shown)
VH: B10 VH with D55G
VL: B10 VL with I20V, T21S, H33N, Q36R, V47I
notes: human IgG1; group 1
B12: anti-mutCALR antibody clone 16 (antibody, human IgG1, lambda, V domains shown)
VH: B10 VH
VL: B10 VL with Q16K, I27T
notes: human IgG1; group 1
B13: anti-mutCALR antibody clone 7 (antibody, human IgG1, lambda, V domains shown)
VH: B10 VH
VL: B10 VL with R19S, G23V, N25T, I27F, S31N, K38R
notes: human IgG1; group 1
B14: anti-mutCALR antibody clone 2 (antibody, human IgG1, lambda, V domains shown)
VH: B10 VH
VL: B10 VL with V3E, Q16K, N25D, N75S, N94I, L96H, L105V
notes: human IgG1; group 1
B15: anti-mutCALR antibody clone 1 (antibody, human IgG1, lambda, V domains shown)
VH: B10 VH
VL: B10 VL with Q16K, N26Y, S51G, E59A, N75S, S93I, N94S, L96H, L97V, I98V
notes: human IgG1; group 1
B16: anti-mutCALR antibody clone 8 (antibody, human IgG1, lambda, V domains shown)
VH: B10 VH with E1Q, A16S
VL: B10 VL with V3E, N68R, N75S, Y86H, N94S, L96H, I98V
notes: human IgG1; group 1
B17: anti-mutCALR antibody clone 9 (antibody, human IgG1, lambda, V domains shown)
VH: B10 VH
VL: B10 VL with T21P, S51R
notes: human IgG1; group 1
B18: anti-mutCALR antibody clone 13 (antibody, human IgG1, lambda, V domains shown)
VH: B10 VH with E1Q
VL: not shown
notes: human IgG1; group 1
B19: anti-mutCALR antibody clone 3 (antibody, human IgG1, lambda, V domains shown)
VH: B10 VH with K63R
VL: B10 VL
notes: human IgG1; group 1
B20: anti-mutCALR antibody clone 5 (antibody, human IgG1, lambda, V domains shown)
VH: B10 VH
VL: B10 VL with R19S, G23V, N25T, I27F, S31N, K38R, N75S, N94S, L96H
notes: human IgG1; group 1
B21: anti-mutCALR antibody clone 10 (antibody, human IgG1, lambda, V domains shown)
VH: B10 VH
VL: B10 VL with V3E, T21P, K30E, S31G, N75S
notes: human IgG1; group 1
B22: anti-mutCALR antibody clone 15 (antibody, human IgG1, lambda)
heavy: not shown
light: SYELTQPPSVSVAPGKTARITCGGDNIGSKSVHWYQQKPGQAPVLVVYDDSDRPSGIPERFSGSNSGNTATLTINRVEAGDEADYYCQVWDSSNDLLIFGGGTKLTVLGQPKAAPSVTLFPPSSEELQANKATLVCLISDFYPGAVTVAWKADSSPVKAGVETTTPSKQSNNKYAASSYLSLTPEQWKSHRSYSCQVTHEGSTVEKTVAPTECS
notes: human IgG1; group 1
B23: anti-mutCALR antibody clone 37 (antibody, human IgG1, lambda, V domains shown)
VH: B9 VH
VL: QSALTQPASVSGSPGQSITISCTGTSSDVGGYNYVSWYQQHPGKAPKLMIYDVSNRPSGVSNRFSGSKSGNTASLTISGLQAEDEADYYCSSYTSSSTFYVFGTGTKVTVLG
notes: human IgG1; group 2
B24: anti-mutCALR antibody clone 35 (antibody, human IgG1, lambda, V domains shown)
VH: B9 VH with K63R
VL: B23 VL with D52E, F99P
notes: human IgG1; group 2
B25: anti-mutCALR antibody clone 36 (antibody, human IgG1, lambda, V domains shown)
VH: B9 VH
VL: B23 VL with A8R, I18V, T23A, S26G, Q40H, S54N, N55K, S61P, N62D
notes: human IgG1; group 2

Target: T1, human Type 1 mutCALR on Ba/F3 cells expressing MPL and Type 1 mutCALR (human)
T1 chain: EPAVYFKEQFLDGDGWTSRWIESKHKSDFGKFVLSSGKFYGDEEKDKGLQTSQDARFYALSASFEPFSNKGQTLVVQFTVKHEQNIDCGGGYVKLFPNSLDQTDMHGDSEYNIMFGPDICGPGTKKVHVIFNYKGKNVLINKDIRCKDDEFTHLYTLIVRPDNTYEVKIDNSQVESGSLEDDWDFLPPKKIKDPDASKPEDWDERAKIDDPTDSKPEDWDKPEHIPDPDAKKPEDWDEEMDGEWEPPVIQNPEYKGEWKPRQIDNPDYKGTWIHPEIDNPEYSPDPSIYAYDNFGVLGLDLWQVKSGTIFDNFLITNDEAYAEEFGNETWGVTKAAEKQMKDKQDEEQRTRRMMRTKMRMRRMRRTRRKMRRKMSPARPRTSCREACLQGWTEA
Experiment: cell-based or functional assay

Row | Binder | IC50, inhibition of pSTAT5 [µg/mL]
1 | B1 | 2.6
2 | B2 | 9.3
3 | B3 | 28
4 | B4 | 13
5 | B5 | 6.9
6 | B6 | 14
7 | B7 | 0.742
8 | B8 | 0.196
9 | B9 | 0.072

Target: T2, human mutCALR on BaF3 cells stably expressing human MPL and human mutCALR (MPL-mutCALR cells) (human)
T2 construct: also called mutant calreticulin
T2 chain: T1 chain
Experiment: flow cytometry, BaF3 MPL-mutCALR cells
Description: On the day of the assay, cells were washed and resuspended in assay buffer. Approximately 200,000 cells/well were added to 96-well plates and stained with the indicated concentration of antibodies for 30 minutes on ice. Cells were then washed and stained with goat anti-human secondary conjugated to R-phycoerythrin (R-PE) (Jackson Immuno Research Laboratories) for 30 minutes on ice. The cells were then washed and analyzed by flow cytometry.

Row | Binder | MPL-mutCALR AUC | EC50 [µg/mL]
10 | B1 | 30300 | 
11 | B2 | 36400 | 0.89
12 | B3 | 36700 | 0.8
13 | B4 | 29800 | 
14 | B5 | 27900 | 
15 | B6 | 37300 | 1.15
16 | B7 | 52900 | 0.07
17 | B8 | 61300 | 
18 | B9 | 71900 | 0.02

target: MBP protein (UniProt P0AEX9 27-392 = MBP); experiment: SPR (Biacore 8K), antibody captured on anti-human IgG (Fc), MBP injected
Description: Experiment 1: Recombinant MBP-mutCALR Type 1 fusion protein was custom made at Cepter (cepterbiopartners.com). Data for the interaction of antibodies with recombinant MBP-mutCALR Type 1 fusion protein were collected at 25° C. on a Biacore 8K instrument (Cytiva, Marlborough, Mass.), and all reagents were obtained from Cytiva unless otherwise specified. The experiments were conducted using Tris-buffered saline (pH 7.2), 0.005% Surfactant P20, 1 mM CaCl₂) as running buffer. To prepare the capture surfaces, anti-human IgG (Fc) antibodies (Product #29234600) was amine-coupled onto a CM4 chip (Product #BR100534) under standard conditions using an Amine Coupling Kit (Product #BR100050). […] The kinetics parameters were obtained by applying 1:1 binding model to fit the data from multiple-cycle injection experiments using Biacore Insight Evaluation software.

Row | Binder | binding result
19 | B10 | no binding (tested: 250 nM)
20 | B11 | no binding (tested: 250 nM)
21 | B12 | no binding (tested: 250 nM)
22 | B13 | no binding (tested: 250 nM)
23 | B14 | no binding (tested: 250 nM)
24 | B15 | no binding (tested: 250 nM)
25 | B16 | no binding (tested: 250 nM)
26 | B17 | no binding (tested: 250 nM)
27 | B18 | no binding (tested: 250 nM)
28 | B19 | no binding (tested: 250 nM)
29 | B20 | no binding (tested: 250 nM)
30 | B21 | no binding (tested: 250 nM)
31 | B22 | no binding (tested: 250 nM)
32 | B23 | no binding (tested: 250 nM)
33 | B24 | no binding (tested: 250 nM)
34 | B25 | no binding (tested: 250 nM)

Reference: patent publication US20230272055A1 (Incyte, published 2023)
